Changes are numbered by the printed parent chain.
B1: 374_C11 (antibody, V domains shown)
VH: EVQLLESGGGLVQPGGSLRLSCAASGFTFSSYSMNWVRQAPGKGLEWVAGINYNSGYKGYADSVKGRFTISRDNSKNTLYLQMNSLRAEDTAVYYCARSATWHDTHLDYWGQGTLVTVSS
VL: DIQMTQSPSSLSASVGDRVTITCRASQSILTYLNWYQQKPGKAPKLLIYAATSRASGVPSRFSGSGSGTDFTLTISSLQPEDFATYYCQQSYESPLTFGGGTKVEIK
B2: 375_G07 (antibody, V domains shown)
VH: B1 VH with S30D, K58T, G59S
VL: B1 VL with T31S, L47V, R54L, E93D, S94L
B3: 376_B01 (antibody, V domains shown)
VH: B1 VH with S30D, S55G, K58T, G59S
VL: B1 VL with L33V, L47V, E93N, S94L
B4: 375_C12 (antibody, V domains shown)
VH: B1 VH with G50N, S55G, K58T
VL: B1 VL with E93D, S94L
B5: 376_A06 (antibody, V domains shown)
VH: B1 VH with S30D, A49S, K58T, G59S, H106A
VL: B1 VL with T31S, L47V, A50Y, A51V, T52S, S53N, E93D, S94N
B6: 375_A06 (antibody, V domains shown)
VH: B1 VH
VL: B1 VL with L33V, T52S, R54L, A55Q, E93S, S94T

Target: Human ACVR2A (on cells) (human, UniProt P27037 20-513)
Sequence (P27037 20-513): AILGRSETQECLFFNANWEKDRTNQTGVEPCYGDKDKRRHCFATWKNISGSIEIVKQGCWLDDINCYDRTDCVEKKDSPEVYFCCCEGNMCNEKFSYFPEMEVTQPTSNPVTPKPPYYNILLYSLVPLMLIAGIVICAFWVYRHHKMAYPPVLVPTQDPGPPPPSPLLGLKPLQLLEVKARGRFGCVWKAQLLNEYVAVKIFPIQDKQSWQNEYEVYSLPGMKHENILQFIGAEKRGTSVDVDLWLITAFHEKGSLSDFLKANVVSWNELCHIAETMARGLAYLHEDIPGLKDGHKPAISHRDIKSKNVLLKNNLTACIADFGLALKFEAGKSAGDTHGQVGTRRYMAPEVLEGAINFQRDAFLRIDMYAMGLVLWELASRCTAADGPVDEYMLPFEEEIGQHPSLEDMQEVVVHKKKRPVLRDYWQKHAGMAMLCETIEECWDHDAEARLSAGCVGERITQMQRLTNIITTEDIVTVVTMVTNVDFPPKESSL
Experiment: cell-based or functional assay

Compared with B1, B2 is lower in “Phospho-SMAD3 Human Skeletal Muscle GDF8 (AlphaLisa, primary human myotubes)” value (from here on “Phospho-SMAD3 Human Skeletal Muscle GDF8”): 0.0266 for the first, 0.0112 for the second.

First: B3
Second: B4
The “Phospho-SMAD3 Human Skeletal Muscle GDF8” value of the first is higher: 0.0086 for the first, 0.0063 for the second.

First: B5
Second: B6
The “Phospho-SMAD3 Human Skeletal Muscle GDF8” value of the first is lower: 0.0043 for the first, 0.0318 for the second.
